Measured values: patent US8329186B2, “Treatment of inflammation using BST2 inhibitor” (Isu Abxis Co., Ltd, priority 2004, dated 2012)

Key:
U937 cells = assay: Homotypic aggregation of U937 cells induced by PMA and LPS; format: cell-based, human; settings: decoy medium from CHO-S cells, in comparison with control medium
Procedure: Expression levels of Bst2 protein were examined during aggregation of human U937 monocytic cells. […] To determine the degree of cell aggregation, the size of formed cell aggregates was measured as pixel intensity, using Adobe's Photoshop software, version 7.0. The standard deviation values shown in drawings were calculated from mean values of six randomly selected aggregates. Thereafter, all used cells were recovered, and total RNA was isolated and subjected to RT-PCR using a set of primers of SEQ ID NOS:3 and 4 to assess Bst2 expression levels.
1×10^6 U937 cells, which had been cultured under the aforementioned conditions, were seeded onto a 96-well cell culture plate (NUNC) and treated with PMA (2 ng/ml, Calbiochem) and LPS (10 μg/ml, Calbiochem) for 24 hrs. The cells were then observed for the degree of homotypic cell aggregation under a phase-contrast inverted microscope (Olympus 1X71, state, USA).
U937 cells were pretreated with PMA and LPS to induce cell aggregation, and were treated with serial dilutions of medium (decoy medium) containing a Bst2 decoy transiently expressed in CHO-S cells.

Jurkat cells = assay: Homotypic aggregation of Jurkat T cells activated with anti-CD3; format: cell-based, human; settings: pretreatment 30 min before activation with anti-CD3
Procedure: When Jurkat cells (5×10^5 cells/ml) were incubated with anti-CD3 monoclonal antibody (OKT3: 10 μg/ml, BD Pharmingen) at 4° C. for 20 min and then with anti-mouse immunoglobulin polyclonal antibody (25 μg/ml, Zymed) 37° C. for 1 hr, cell aggregation occurred, and the cells were activated and induced to produce interleukin-2 (IL-2) (FIGS. 10 and 11). According to the same method, when green fluorescent protein (GFP) overexpression was induced, there was no effect. In contrast, when Jurkat cells were transfected with a Bst2-overexpressing vector and were induced to activate, homotypic cell aggregation increased (FIG. 10, panel A). IL-2 mRNA levels upon T cell activation were measured by real-time RT-PCR (Example 3). IL-2 mRNA expression was elevated by about two times under Bst2 overexpression in comparison with GFP overexpression (FIG. 10, panel B).
Jurkat cells were pretreated with a Bst2 decoy 30 min before activation, were activated using anti-CD3 monoclonal antibody, and were evaluated for inhibition of cell aggregation. The cells were treated with a relative amount of serial dilutions of an animal cell culture fluid containing a Bst2 decoy. The size of aggregates was represented as a ratio to the size of aggregates of a non-treatment group.

B1: Bst2 decoy: soluble Bst2 protein fragment having the amino acid sequence of SEQ ID NO:1; extracellular region of human Bst2, six-histidine tag (protein)
chain: NSEACRDGLRAVMECRNVTHLLQQELTEAQKGFQDVEAQAATCNHTVMALMASLDAEKAQGQKKVEELEGEITTLNHKLQDASAEVERLRRENQVLSVRIADKKYYPSSQDHHHHHH
- decrease of U937 cell aggregation induced by PMA and LPS (U937 cells): 50%
- aggregation of Jurkat cells (Jurkat cells): significant decrease
